The test deals with T1, human epidermal growth factor receptor (EGFR) on A431 cells (human, UniProt P00533 25-1210).
T1 construct: whole, on cells; The target is presented on fixed A431 cells
As to the kind of experiment: ELISA on fixed A431 cells, anti-human Fc-HRP detection, SigmaPlot fit. How it is done: A431 cells in a concentration of 4×10⁵ cell/ml were seeded in Corning CellBIND 96-well plate for 16-24 h before assay. After PBS wash, the A431 cells were fixed with BD CytoFix fixation buffer for 15-20 min at room temperature. After fixation and PBS wash procedure, the A431 cells were blocked with StartingBlock blocking buffer for 30 min at 37° C. Plates were washed three times with PBST wash buffer and incubated with the indicated concentrations of dAb-D2-hFc and VH-dAb-D2×4-Ig in 50 ul StartingBlock blocking buffer on ice for 1.5 h. Wells were washed three times with PBST wash buffer. After washing, the plate was incubated with HRP-conjugated anti-human Fc antibody diluted 1:10,000 in StartingBlock blocking buffer on ice for 1 hour. Plates were washed and incubated with TMB. Absorbance at 450 nm was read on a microplate reader.

B1: VH-dAb-D2×4-Ig tetrameric antibody (antibody, V domains shown)
V domain 1: QVQLLESGGGLVQPGGSLRLSCAASGYRFNSEAMGWVRQAPGKGLEWVSSINMRGGSTYYADSVKGRFTISRDNSKNTLYLQMNSLRAEDTAVYYCATVPRSMWWAGLTAKPIRYWGQGTLVTVSS
V domain 2: B1 V domain 1
notes: also called tetravalent antibody; tetravalent fusion protein; not shown: CH1, CH2 and CH3 of human IgG; CL of human IgG
In the case of B1, the Kd was about 6 nM.
